According to patent US20140322196A1 (priority 2011, published 2014):

Test system: A/Parma/24/09 (Brisbane-like) (oseltamivir-resistant) H1N1
Format: cell-based, Influenza A virus
Conditions: A/Parma/24/09 H1N1

B1: bLf: Lactoferrin from bovine milk, purchased from Morinaga Milk Industries, deprived of endotoxin (protein, UniProt P24627 20-708, looked up)
Lactotransferrin: APRKNVRWCTISQPEWFKCRRWQWRMKKLGAPSITCVRRAFALECIRAIAEKKADAVTLDGGMVFEAGRDPYKLRPVAAEIYGTKESPQTHYYAVAVVKKGSNFQLDQLQGRKSCHTGLGRSAGWIIPMGILRPYLSWTESLEPLQGAVAKFFSASCVPCIDRQAYPNLCQLCKGEGENQCACSSREPYFGYSGAFKCLQDGAGDVAFVKETTVFENLPEKADRDQYELLCLNNSRAPVDAFKECHLAQVPSHAVVARSVDGKEDLIWKLLSKAQEKFGKNKSRSFQLFGSPPGQRDLLFKDSALGFLRIPSKVDSALYLGSRYLTTLKNLRETAEEVKARYTRVVWCAVGPEEQKKCQQWSQQSGQNVTCATASTTDDCIVLVLKGEADALNLDGGYIYTAGKCGLVPVLAENRKSSKHSSLDCVLRPTEGYLAVAVVKKANEGLTWNSLKDKKSCHTAVDRTAGWNIPMGLIVNQTGSCAFDEFFSQSCAPGADPKSRLCALCAGDDQGLDKCVPNSKEKYYGYTGAFRCLAEDVGDVAFVKNDTVWENTNGESTADWAKNLNREDFRLLCLDGTRKPVTEAQSCHLAVAPNHAVVSRSDRAAHVKQVLLHQQALFGKNGKNCPDKFCLFKSETKNLLFNDNTECLAKLGGRPTYEEYLGTEYVTAIANLKKCSTSPLLEACAFLTR
HI titre: 6 nM
